We go through four molecules from publication doi:10.1101/2022.02.14.480324.

Numbering of substitutions follows the chain as printed.

The target in series [1] is T1, His-OsIRO3 (Oryza sativa (rice), UniProt Q10KL8 1-252).
T1 sequence: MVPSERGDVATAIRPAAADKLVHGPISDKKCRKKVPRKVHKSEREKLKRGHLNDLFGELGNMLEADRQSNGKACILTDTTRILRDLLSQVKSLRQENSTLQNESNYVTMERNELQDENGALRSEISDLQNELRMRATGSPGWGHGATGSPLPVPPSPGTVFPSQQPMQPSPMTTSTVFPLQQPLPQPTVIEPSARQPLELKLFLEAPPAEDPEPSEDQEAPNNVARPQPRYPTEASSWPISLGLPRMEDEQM
The series can be described thus: EMSA. A general note: A gel shift assay detects complexes by their altered migration in electrophoresis.

For series [2], the target named is T1, His-OsIRO3. The series can be described thus: competition.
Series [3] concerns the target T1, His-OsIRO3. The series is described as follows: competition. This is another data set of the same source.

B1: pOsIRO2 probe (dsDNA)
DNA 1: CCTCCCTAGCTTGGCAGAATAGTTAATGTTAATCACCTGATTAAA
DNA 2: TTTAATCAGGTGATTAACATTAACTATTCTGCCAAGCTAGGGAGG
As to B1, the binding result with His-OsIRO3 [1] is “binds”.

B2: mpOsIRO2 (Cold-Probe-m) (dsDNA)
DNA 1: B1 DNA 1 with C34G, A35T
DNA 2: B1 DNA 2 with T11A, G12C
As for B2, the binding result with His-OsIRO3 [2] is given as “no binding”.

B3: pOsIRO2 unlabeled (Cold-Probe) (dsDNA)
DNA 1: B1 DNA 1
DNA 2: B1 DNA 2
Consider B3, for which the binding result with His-OsIRO3 [3] is listed as “binds”.

B4: pOsFIT probe (dsDNA)
DNA 1: TCAAGTAGTATTAGTCAATTGGTCATCACATTTCG
DNA 2: CGAAATGTGATGACCAATTGACTAATACTACTTGA
Consider B4, for which the binding result with His-OsIRO3 [1] was “no binding”.
